Measurements as given in IntAct's records for PubMed 19013157.

B1: Chaperone protein TorD (Escherichia coli (strain K12)), P36662 (parent)
chain: MTTLTAQQIACVYAWLAQLFSRELDDEQLTQIASAQMAEWFSLLKSEPPLTAAVNELENRIATLTVRDDARLELAADFCGLFLMTDKQAALPYASAYKQDEQEIKRLLVEAGMETSGNFNEPADHLAIYLELLSHLHFSLGEGTVPARRIDSLRQKTLTALWQWLPEFVARCRQYDSFGFYAALSQLLLVLVECDHQNR
B2: Trimethylamine-N-oxide reductase 1 (Escherichia coli (strain K12)), P33225 (parent)
chain: MNNNDLFQASRRRFLAQLGGLTVAGMLGPSLLTPRRATAAQAATDAVISKEGILTGSHWGAIRATVKDGRFVAAKPFELDKYPSKMIAGLPDHVHNAARIRYPMVRVDWLRKRHLSDTSQRGDNRFVRVSWDEALDMFYEELERVQKTHGPSALLTASGWQSTGMFHNASGMLAKAIALHGNSVGTGGDYSTGAAQVILPRVVGSMEVYEQQTSWPLVLQNSKTIVLWGSDLLKNQQANWWCPDHDVYEYYAQLKAKVAAGEIEVISIDPVVTSTHEYLGREHVKHIAVNPQTDVPLQLALAHTLYSENLYDKNFLANYCVGFEQFLPYLLGEKDGQPKDAAWAEKLTGIDAETIRGLARQMAANRTQIIAGWCVQRMQHGEQWAWMIVVLAAMLGQIGLPGGGFGFGWHYNGAGTPGRKGVILSGFSGSTSIPPVHDNSDYKGYSSTIPIARFIDAILEPGKVINWNGKSVKLPPLKMCIFAGTNPFHRHQQINRIIEGLRKLETVIAIDNQWTSTCRFADIVLPATTQFERNDLDQYGNHSNRGIIAMKQVVPPQFEARNDFDIFRELCRRFNREEAFTEGLDEMGWLKRIWQEGVQQGKGRGVHLPAFDDFWNNKEYVEFDHPQMFVRHQAFREDPDLEPLGTPSGLIEIYSKTIADMNYDDCQGHPMWFEKIERSHGGPGSQKYPLHLQSVHPDFRLHSQLCESETLRQQYTVAGKEPVFINPQDASARGIRNGDVVRVFNARGQVLAGAVVSDRYAPGVARIHEGAWYDPDKGGEPGALCKYGNPNVLTIDIGTSQLAQATSAHTTLVEIEKYNGTVEQVTAFNGPVEMVAQCEYVPASQVKS
partner: B1 chain

Variants of: B1
Details: with tora_ecoli torA

effect of a mutation on the interaction | Variant
increasing interaction | MTTLTAQQIACVYAWLAQLFSRELDDEQLTQIASAQMAEWFSLLKSEPPLTAAVNELENRIATLTVRDDARLELAADFCGLFLMTDKQAALPYASAYKQDEQEIKRLLVEAGMETSGNFNEPADHLAIYLELLSHLHFSLGEGTVPARRIDSLRQKTLTALWQWLPEFVARCRQYDSFGLYAALSQLLLVLVECDHQNR [F180L]
increasing interaction | MTTLTALQIACVYAWLAQLFSRELDDEQLTQIASAQMAEWFSLLKSEPPLTAAVNELENRIATLTVRDDARLELAADFCGLFLMTDKQAALPYASAYKQDEQEIKRLLVEAGMETSGNFNEPADHLAIYLELLSHLHFSLGEGTVPARRIDSLRQKTLTALWQWLPEFVARCRQYDSFGFYAALSQLLLVLVECDHQNR [Q7L]
increasing interaction | MTTLTAQQIACVYAWLAQLFSRELDDEQLTQIASAQMAEWFSLLKSEPPLTAAVNELENRIATLTVRDDARLELAADFCGLFLMTDKQAALPYASAYKQDEQEIKRLLVEAGMETSGNFNEPADHLAIYLELLSHLHFSLGEGTVPARRIDSLRQKTLTALWQWLPEFVARCRQYDSFGFYAALSQLLQVLVECDHQNR [L189Q]

Variants of: B1
Details: with tora_ecoli torA
Remark: another data set of the same source

effect of a mutation on the interaction | Variant
decreasing interaction | MTTLTAQQIACVYAWLAQLFSRELDDEQLTQIASAQMAEWFSLLKSEPPLTAAVNELENRIATLTVRDDARLELAADFCGLFLMTDKQAALPYASAYKQDEQEIKRLLVEAGMETSGNFNEPADHLAIYLELLSHLHFSLGEGTVPARRIDSLRQKTLTALWQWLPEFVARCRQYDSFGLYAALSQLLLVLVECDHQNR [F180L]

Variants of: B1
Details: with tora_ecoli torA
Remark: another data set of the same source

effect of a mutation on the interaction | Variant
increasing interaction | MTTLTAQQIACVYAWLAQLFSRELDDEQLTQIASAQMAEWFSLLKSEPPLTAAVNELENRIATLTVRDDARLELAADFCGLFLMTDKQAALPYASAYKQDEQEIKRLLVEAGMETSGNFNEPADHLAIYLELLSHLHFSLGEGTVPARRIDSLRQKTLTALWQWLPEFVARCRQYDSFGFYAALSLLLLVLVECDHQNR [Q186L]

Variants of: B1
Details: with tora_ecoli torA
Remark: another data set of the same source

effect of a mutation on the interaction | Variant
decreasing interaction | MTTLTAQQIACVYAWLAQLFSRELDDEQLTQIASAQMAEWFSLLKSEPPLTAAVNELENRIATLTVRDDARLELAADFCGLFLMTDKQAALPYASAYKQDEQEIKRLLVEAGMETSGNFNEPADHLAIYLELLSHLHFSLGEGTVPARRIDSLRQKTLTALWQWLPEFVARCRQYDSFGFYAALSQLLQVLVECDHQNR [L189Q]

Variants of: B2
Details: with tord_ecoli torD

effect of a mutation on the interaction | Variant
decreasing interaction | G19Q

Variants of: B2
Details: with tord_ecoli torD
Remark: another data set of the same source

effect of a mutation on the interaction | Variant
disrupting interaction | L32Q

Variants of: B2
Details: with tord_ecoli torD
Remark: another data set of the same source

effect of a mutation on the interaction | Variant
decreasing interaction | G28Q

Variants of: B2
Details: with tord_ecoli torD
Remark: another data set of the same source

effect of a mutation on the interaction | Variant
increasing interaction | T22Q

Variants of: B2
Details: with tord_ecoli torD
Remark: another data set of the same source

effect of a mutation on the interaction | Variant
decreasing interaction | V23Q

Variants of: B2
Details: with tord_ecoli torD
Remark: another data set of the same source

effect of a mutation on the interaction | Variant
disrupting interaction | L31Q

Variants of: B2
Details: with tord_ecoli torD
Remark: another data set of the same source

effect of a mutation on the interaction | Variant
decreasing interaction | L31Q

Variants of: B2
Details: with tord_ecoli torD
Remark: another data set of the same source

effect of a mutation on the interaction | Variant
disrupting interaction | L27Q
